# Molecular target: syntrophin PDZ domain (UniProt Q61234)
substance,measurement,value
VKESLV ligand (syntrophin PDZ ligand) (peptide),Kd,1.97 µM

# From article PMC10528910
